Measurements as given in US20220251184A1 (Regeneron, published 2022).
Residue numbers refer to the chain shown, from its start. One block for each binder: values may come before it.

Experiments:
[1] = biological target: T1, human BMP6 (R&D Systems, Cat #507-BP) (human, UniProt P22004 375-513, limits assumed); assay: SPR (MASS-1), mAb captured on anti-human Fc, hBMP6 in solution, 25 C
T1 construct: Bought protein (R&D Systems 507-BP or 507-BP/CF); also called hBMP6; hBMP-6
T1 sequence: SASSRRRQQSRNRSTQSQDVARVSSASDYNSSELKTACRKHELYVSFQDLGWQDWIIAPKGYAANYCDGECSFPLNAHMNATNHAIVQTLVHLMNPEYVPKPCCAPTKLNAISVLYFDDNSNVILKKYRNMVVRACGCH
Experimental: (§1) Equilibrium dissociation constants (KD values) for human and mouse BMP6 binding to purified anti-BMP6 monoclonal antibodies of this invention were determined using a real-time surface plasmon resonance (SPR) biosensor instrument, MASS-1. All binding studies were performed in 10 mM HEPES, 150 mM NaCl, 3 mM EDTA, 1 μg/mL Heparin, and 0.05% v/v Surfactant Tween-20, pH 7.4 (HBS-EHT) running buffer at 25° C. and 37° C. The HCA sensor surface was first derivatized by amine coupling the monoclonal mouse anti-human Fc antibody (GE, #BR100839) and anti-BMP6 monoclonal antibodies were individually captured. Different concentrations of human BMP6 reagents (hBMP6; R&D Systems, Cat #507-BP; 60 nM-0.94 nM; 4-fold serial dilution) or mouse BMP6 (mBMP6; R&D Systems, Cat #6325-BM; 60 nM and 15 nM) prepared in HBS-EHT running buffer were injected over the captured anti-BMP6 monoclonal antibody for 4 minutes at a flow rate of 30 μL/minute, while the dissociation of BMP6 reagent bound to captured anti-BMP6 monoclonal antibody was monitored for 10 minutes in HBS-EHT running buffer. Kinetic association (kₐ) and dissociation (kd) rate constants were determined by fitting the real-time binding sensorgrams to a 1:1 binding model with mass transport limitation using Scrubber 2.0c software. Binding dissociation equilibrium constant (KD) and dissociative half-life (t½) for different anti-BMP6 monoclonal antibodies were calculated from the kinetic rate constants as: […]

Human BMP8A = biological target: T2, Human BMP8A (human, UniProt Q7Z5Y6 264-402, limits assumed); assay: BLI (Octet HTX), mAb captured on Protein A sensor, 100 nM ligand, 25 C
T2 sequence (looked up): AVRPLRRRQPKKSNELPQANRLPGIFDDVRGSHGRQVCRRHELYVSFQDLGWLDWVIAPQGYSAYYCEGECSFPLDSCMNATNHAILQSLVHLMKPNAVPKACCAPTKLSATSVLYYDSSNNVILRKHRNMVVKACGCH
Experimental: (§2) Binding cross-reactivity of anti-BMP6 monoclonal antibodies to BMP6 family members, (Human: BMP6, BMP5, BMP7, BMP8A, BMP9, BMP10, BMP12, BMP14, BMP3b, Activin A, and GDF3 and mouse: BMP6 and GDF6) was determined using a real-time Bio-Layer Interferometry (BLI) biosensor using Octet HTX instrument. All binding studies were performed in 10 mM HEPES, 150 mM NaCl, 3 mM EDTA, 1 mg/mL BSA, 50 μg/mL Heparin, and 0.05% v/v Surfactant Tween-20, pH 7.4 (HBS-EBHT) buffer at 25° C. with the plate shaking at a speed of 1000 rpm. To assess binding cross-reactivity, Protein A coated Octet biosensor (Pall ForteBio Corp., #18-5010) was first dipped in wells containing […] of anti-BMP6 monoclonal antibodies for 4 minutes followed by submerging in wells containing 100 nM of different BMP6 family members for 4 minutes. The biosensors were washed in HBS-EBHT buffer in between every step of the experiment. At the end of each cycle, the Protein A biosensor was regenerated using three alternate 5 second dips in 10 mM Glycine pH 2.0 and 10 second dip HBS-EBHT buffer. The real-time binding response was monitored during the course of the experiment and the binding response at the end of every step was recorded and tabulated as shown in Tables 8A and 8B.

Human BMP10 = biological target: T3, Human BMP10 (human, UniProt O95393 317-424); assay: as above
T3 sequence (looked up): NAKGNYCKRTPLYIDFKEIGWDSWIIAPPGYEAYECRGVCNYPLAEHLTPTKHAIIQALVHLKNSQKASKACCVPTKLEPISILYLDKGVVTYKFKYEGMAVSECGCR
Experimental: as §2

Mouse GDF6 = biological target: T4, Mouse GDF6 (mouse, UniProt P43028 335-454, limits assumed); assay: as above
T4 sequence (looked up): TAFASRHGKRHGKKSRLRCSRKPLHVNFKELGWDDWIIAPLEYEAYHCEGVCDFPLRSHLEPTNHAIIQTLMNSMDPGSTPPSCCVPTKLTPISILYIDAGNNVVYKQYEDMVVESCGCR
Experimental: as §2

[2] = biological target: T1, human BMP6 (R&D Systems, Cat #507-BP); assay: as above
Experimental: as §2

[3] = biological target: T1, human BMP6 (R&D Systems, Cat #507-BP); assay: SPR (MASS-1), mAb captured on anti-human Fc, hBMP6 in solution, 25 C; 25 C
Experimental: as §1, with “software.” for “software. Binding dissociation equilibrium constant (KD) and dissociative half-life (t½) for different anti-BMP6 monoclonal antibodies were calculated from the kinetic rate constants as:”

koff [1]: 4.14e-05 s⁻¹ | kon [1]: 283000 M⁻¹ s⁻¹ | t1/2 [1]: 279 min | binding response (Human BMP8A): 0 nm | binding response (Human BMP10): 0.01 nm | binding response (Mouse GDF6): -0.02 nm | binding response [2]: 0.21 nm | Kd [3]: 0.195 nM
B1: H4H17871P (antibody, V domains shown)
VH: EVQLVESGGGLVQPGGSLRLSCAASGFTFNNYAMSWVRQAPGKGLEWVSAISGSGDSTYYADSVKGRFTISRDNSKNTLYLQMNSLRAEDTAVYYCAKRSRSSPFDPWGQGTLVTVSS
VL: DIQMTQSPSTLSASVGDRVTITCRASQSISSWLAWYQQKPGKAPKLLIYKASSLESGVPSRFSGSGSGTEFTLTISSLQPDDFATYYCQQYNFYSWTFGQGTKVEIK
notes: Fully human antibody; also called anti-BMP6 monoclonal antibody; BMP6 antibody of the invention

Kd [1]: 0.355 nM | koff [1]: 6.3e-05 s⁻¹ | kon [1]: 178000 M⁻¹ s⁻¹ | t1/2 [1]: 183 min | binding response (Human BMP8A): -0.02 nm | binding response (Human BMP10): -0.01 nm | binding response (Mouse GDF6): -0.02 nm | binding response [2]: 0.29 nm
B2: H4H17855P (antibody, V domains shown)
VH: B1 VH with N30S, N31S, D56G, S57R, A61T, I70M, S100P, R101Y, S102N
VL: EIVLTQSPGTLSLSPGEGATLSCRASQSVSSSYLAWYQQKPGQAPRLLIYGASSRATGIPDRFSGSGSGTDFTLTISRLEPEDFVVYYCQHFGGTPFTFGGGTKVEIK
notes: as for B1
